Results on 1 molecule are retold here after PMC2171815.

This assay deals with Cog3p (subunit 3 of the conserved oligomeric Golgi (COG) complex) (rat (endogenous in rat liver Golgi)). In words: co-IP.

B1: GS28 (intra-Golgi v-SNARE) (natural protein)
chain: MAAGTSNYWEDLRKQARQLENELDLKLVSFSKLCTSYSHSSARDGGRDRYSSDTTPLLNGSSQDRMFETMAIEIEQLLARLTGVNDKMAEYTHSAGVPSLNAALMHTLQRHRDILQDYTHEFHKTKANFMAIRERENLMGSVRKDIESYKSGSGVNNRRTELFLKEHDHLRNSDRLIEETISIAMATKENMTSQRGMLKSIHSKMNTLANRFPAVNSLIQRINLRKRRDSLILGGVIGICTILLLLYAFH
B1: the percent of total co-precipitated amounted to 5%.
